# Experimental data: US6759384 (AVENTIS PHARMACEUTICALS, dated 2004)
# Starred links: 1 amine or outer side, 2 acyl side, 3 side chain; linkers in the order of their positions; H or OH if unused. Non-standard residues stand in square brackets, D forms with d. No end group written: not given here. *: point of attachment. (pOH)C6H4‑OCH(CH3)CO = N-terminal acyl cap: 4-hydroxyphenyl-O-CH(CH3)-C(=O)- (2-(4-hydroxyphenoxy)propionyl), CC(Oc1ccc(O)cc1)C(=O)*; (pOH)C6H4‑CH2CHOH‑CO = N-terminal acyl cap: 4-hydroxyphenyl-CH2-CH(OH)-C(=O)- (4-hydroxyphenyllactyl); (iBu)Y = N-alpha-isobutyl-tyrosine, CC(C)CN([C@@H](Cc1ccc(O[*:3])cc1)C(=O)[*:2])[*:1]; Orn(N^δ-C3H7N) = ornithine-derived dimethylamidinium (N-delta-C3H7N); Dab(N^γ-C3H7N) = Dab-derived dimethylamidinium (N-gamma-C3H7N); dTyr(Me) = COc1ccc(C[C@@H](N[*:1])C(=O)[*:2])cc1; Phe(4-Cl) = N[C@@H](Cc1ccc(Cl)cc1)C(=O)O; Phe(4-F) = N[C@@H](Cc1ccc(F)cc1)C(=O)O; dTic = O=C(O)[C@H]1Cc2ccccc2CN1; Tos = Cc1ccc(S(=O)(=O)*)cc1; Tfa = O=C(C(F)(F)F)*; Sar = CNCC(=O)O; For = O=C*
# B1: Tos-G-I-R-V-Sar-NH2 (peptide)
# peptide: Tos-GIRV[Sar]-NH2
# SMILES: CC[C@H](C)[C@H](NC(=O)CNS(=O)(=O)c1ccc(C)cc1)C(=O)N[C@@H](CCCNC(=N)N)C(=O)N[C@H](C(=O)N(C)CC(N)=O)C(C)C
# B2: F(pCl)-I-R-I-Sar-NH2 (peptide)
# peptide: [Phe(4-Cl)]IRI[Sar]-NH2
# modifications: N-terminus assumed
# SMILES: CC[C@H](C)[C@H](NC(=O)[C@@H](N)Cc1ccc(Cl)cc1)C(=O)N[C@@H](CCCNC(=N)N)C(=O)N[C@H](C(=O)N(C)CC(N)=O)[C@@H](C)CC
# B3: (pOH)C6H4-OCH(CH3)CO-I-R-L-P-NH2 (peptide)
# peptide: {(pOH)C6H4‑OCH(CH3)CO}-IRLP-NH2
# SMILES: CC[C@H](C)[C@H](NC(=O)C(C)Oc1ccc(O)cc1)C(=O)N[C@@H](CCCNC(=N)N)C(=O)N[C@@H](CC(C)C)C(=O)N1CCC[C@H]1C(N)=O
# B4: F(pF)-I-R-L-P-NH2 (peptide)
# peptide: [Phe(4-F)]IRLP-NH2
# modifications: N-terminus assumed
# SMILES: CC[C@H](C)[C@H](NC(=O)[C@@H](N)Cc1ccc(F)cc1)C(=O)N[C@@H](CCCNC(=N)N)C(=O)N[C@@H](CC(C)C)C(=O)N1CCC[C@H]1C(N)=O
# notes: also called Phe(pF)-I-R-L-P-NH
# B5: I-H-L-W-y-I-R-L-P-NH2 (peptide)
# peptide: IHLW[dY]IRLP-NH2
# modifications: N-terminus assumed
# SMILES: CC[C@H](C)[C@H](N)C(=O)N[C@@H](Cc1c[nH]cn1)C(=O)N[C@@H](CC(C)C)C(=O)N[C@@H](Cc1c[nH]c2ccccc12)C(=O)N[C@H](Cc1ccc(O)cc1)C(=O)N[C@H](C(=O)N[C@@H](CCCNC(=N)N)C(=O)N[C@@H](CC(C)C)C(=O)N1CCC[C@H]1C(N)=O)[C@@H](C)CC
# B6: D-Tic-I-R-L-A-A-F-T-NH2 (peptide)
# peptide: [dTic]IRLAAFT-NH2
# modifications: N-terminus assumed
# SMILES: CC[C@H](C)[C@H](NC(=O)[C@H]1Cc2ccccc2CN1)C(=O)N[C@@H](CCCNC(=N)N)C(=O)N[C@@H](CC(C)C)C(=O)N[C@@H](C)C(=O)N[C@@H](C)C(=O)N[C@@H](Cc1ccccc1)C(=O)N[C@H](C(N)=O)[C@@H](C)O
# B7: w-L-R-L-A-NH2 (peptide)
# peptide: [dW]LRLA-NH2
# modifications: N-terminus assumed
# SMILES: CC(C)C[C@H](NC(=O)[C@H](N)Cc1c[nH]c2ccccc12)C(=O)N[C@@H](CCCNC(=N)N)C(=O)N[C@@H](CC(C)C)C(=O)N[C@@H](C)C(N)=O
# Target: human factor Xa (Enzyme Research Laboratories, Inc.) (human, UniProt P00742 41-179; P00742 235-488, limits assumed)
# Assay: chromogenic FXa inhibition
# Outline: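 Human FXa (0.5 nM) preincubated 10 min with inhibitor in TBS-P (pH 7.8, 200 mM NaCl, PEG-8000), then S-2765 added (140 μM). Initial hydrolysis rate read at 405 nm, 25° C.; IC50 by linear regression of relative rate vs log concentration.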
# Chain of human factor Xa (Enzyme Research Laboratories, Inc.) (P00742 41-179 limits assumed, chain 1 of 2): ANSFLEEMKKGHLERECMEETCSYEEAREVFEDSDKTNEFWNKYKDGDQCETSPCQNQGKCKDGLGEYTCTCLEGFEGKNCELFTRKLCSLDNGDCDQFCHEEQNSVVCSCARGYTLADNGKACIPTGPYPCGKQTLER
# Chain of human factor Xa (Enzyme Research Laboratories, Inc.) (P00742 235-488 limits assumed, chain 2 of 2): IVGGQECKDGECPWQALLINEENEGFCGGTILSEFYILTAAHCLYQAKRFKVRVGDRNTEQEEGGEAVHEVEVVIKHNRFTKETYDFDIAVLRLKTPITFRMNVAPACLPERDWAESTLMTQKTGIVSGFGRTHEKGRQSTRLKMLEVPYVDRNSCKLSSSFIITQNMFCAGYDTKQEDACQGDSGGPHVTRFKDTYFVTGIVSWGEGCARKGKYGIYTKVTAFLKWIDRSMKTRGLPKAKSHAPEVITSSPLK
binder,measurement,value
WLRLA-NH2 [W-L-R-L-A-NH2],Ki,< 100 µM
XIRLP (N-term Tfa; Y1=Y(Me) O-methyl tyrosine; C-term NH2) [Tfa-Y(Me)I-R-L-P-NH2],Ki,< 100 µM
Tfa-YIRLP-NH2 [Tfa-Y-I-R-L-P-NH2],Ki,< 100 µM
B1,Ki,< 100 µM
YIRLAAF-NH2 [Y-I-R-L-A-A-F-NH2],Ki,< 100 µM
YIRLTKMW-NH2 [Y-I-R-L-T-K-M-W-NH2],Ki,< 100 µM
YIRLP-NH2 [Y-I-R-L-P-NH2],Ki,< 100 µM
FIRLPHYG-NH2 [F-I-R-L-P-H-Y-G-NH2],Ki,< 100 µM
Tfa-[(iBu)Y]I[Dab(N^γ-C3H7N)]LP-NH2 [Tfa-(iBu)Y-I-Dab(N^γ-C3H7N)-L-P-NH2],Ki,< 100 µM
YIRIYERE-NH2 [Y-I-R-I-Y-E-R-E-NH2],Ki,< 100 µM
[dTyr(Me)]IRLP-NH2 [y(Me)-I-R-L-P-NH2],Ki,< 100 µM
{Ph‑CH2CH2CH2‑CO}-IRLA-NH2 [Ph-CH2CH2CH2-CO-I-R-L-A-NH2],Ki,< 100 µM
YIRLAA-NH2 [Y-I-R-L-A-A-NH2],Ki,< 100 µM
GYIRLPAM-NH2 [G-Y-I-R-L-P-A-M-NH2],Ki,< 100 µM
YIRVAQLY-NH2 [Y-I-R-V-A-Q-L-Y-NH2],Ki,< 100 µM
Tfa-[dY]IRLP-NH2 [Tfa-y-I-R-L-P-NH2],Ki,< 100 µM
For-[dY]IRLP-NH2 [For-y-I-R-L-P-NH2],Ki,< 100 µM
GGYIRG-NH2 [G-G-Y-I-R-G-NH2],Ki,< 100 µM
B2,Ki,< 100 µM
IQLGYIRLP-NH2 [I-Q-L-G-Y-I-R-L-P-NH2],Ki,< 100 µM
TFGYIRKA-NH2 [T-F-G-Y-I-R-K-A-NH2],Ki,< 100 µM
GYIRLPSQ-NH2 [G-Y-I-R-L-P-S-Q-NH2],Ki,< 100 µM
WLRLAGGGGG-NH2 [W-L-R-L-A-G-G-G-G-G-NH2],Ki,< 100 µM
WLRVAGGGGG-NH2 [W-L-R-V-A-G-G-G-G-G-NH2],Ki,< 100 µM
{4‑MeO‑C6H4‑CO}-IRLA-NH2 [4-MeO-C6H4-CO-I-R-L-A-NH2],Ki,< 100 µM
{(pOH)C6H4‑CH2CH2CO}-IRLA-NH2 [(pOH)C6H4-CH2CH2CO-I-R-L-A-NH2],Ki,< 100 µM
{(pOH)C6H4‑OCH2CO}-IRLP-NH2 [(pOH)C6H4-OCH2CO-I-R-L-P-NH2],Ki,< 100 µM
IRLP (N-term (pOH)C6H4-CH2CH2CO; C-term NH2) [(pOH)C6H4-CH2CH2CO-I-R-L-P-NH2],Ki,< 100 µM
B3,Ki,< 100 µM
{(pOH)C6H4‑CH2CHOH‑CO}-IRLP-NH2 [(pOH)C6H4-CH2CHOH-CO-I-R-L-P-NH2],Ki,< 100 µM
GYIRLPQT-NH2 [G-Y-I-R-L-P-Q-T-NH2],Ki,< 100 µM
"XIRLP (N,N-diethyl (Et(Et)) on Y1; C-term NH2) [Et(Et)Y-I-R-L-P-NH2]",Ki,< 100 µM
B4,Ki,< 100 µM
WFREMGGGGG-NH2 [W-F-R-E-M-G-G-G-G-G-NH2],Ki,< 100 µM
B5,Ki,< 100 µM
{Ph‑CH═CH‑CO}-IRLA-NH2 [Ph-CH═CH-CO-I-R-L-A-NH2],Ki,< 100 µM
SYIRLP-NH2 [S-Y-I-R-L-P-NH2],Ki,< 100 µM
YIRLAAFT-NH2 [Y-I-R-L-A-A-F-T-NH2],Ki,< 100 µM
Tfa-[(iBu)Y]I[Orn(N^δ-C3H7N)]LP-NH2 [Tfa-(iBu)Y-I-Orn(N^δ-C3H7N)-L-P-NH2],Ki,< 100 µM
GYIRD-NH2 [G-Y-I-R-D-NH2],Ki,< 100 µM
GYIRF-NH2 [G-Y-I-R-F-NH2],Ki,< 100 µM
GYIRV-NH2 [G-Y-I-R-V-NH2],Ki,< 100 µM
GYIRW-NH2 [G-Y-I-R-W-NH2],Ki,< 100 µM
GYIRY-NH2 [G-Y-I-R-Y-NH2],Ki,< 100 µM
GYIRS-NH2 [G-Y-I-R-S-NH2],Ki,< 100 µM
IHLWYIRLP-NH2 [I-H-L-W-Y-I-R-L-P-NH2],Ki,< 100 µM
NGYIRLIH-NH2 [N-G-Y-I-R-L-I-H-NH2],Ki,< 100 µM
B6,Ki,< 100 µM
YIRLPGLL-NH2 [Y-I-R-L-P-G-L-L-NH2],Ki,< 100 µM
B7,Ki,< 100 µM
YIREFSDY-NH2 [Y-I-R-E-F-S-D-Y-NH2],Ki,< 100 µM
WIRNP-NH2 [W-I-R-N-P-NH2],Ki,< 100 µM
WIRTP-NH2 [W-I-R-T-P-NH2],Ki,< 100 µM
{Ph‑CH2CH2CO}-IRLA-NH2 [Ph-CH2CH2CO-I-R-L-A-NH2],Ki,< 100 µM
GYIRLPPV-NH2 [G-Y-I-R-L-P-P-V-NH2],Ki,< 100 µM
"EYIRLPK-NH2 (also: cyclisation unknown (underlining lost), may be cyclic; underlining lost) [E-Y-I-R-L-P-K-NH2]",Ki,< 100 µM
FIRLYVWN-NH2 [F-I-R-L-Y-V-W-N-NH2],Ki,< 100 µM
For-YIRLP-NH2 [For-Y-I-R-L-P-NH2],Ki,< 100 µM
YIRLMEMT-NH2 [Y-I-R-L-M-E-M-T-NH2],Ki,< 100 µM
YIRL-NH2 [Y-I-R-L-NH2],Ki,< 100 µM
"EYIRLK-NH2 (also: cyclisation unknown (underlining lost), may be cyclic; underlining lost) [E-Y-I-R-L-K-NH2]",Ki,< 100 µM
